Results on seven molecules are retold here after publication PMC5076566 (Cell, 2016).

Data set [1] deals with the molecule itself. The data set can be described thus: polymerisation and hydrogel formation.
The target of data set [2] is Recombinant human vimentin, full length (2-466 AA), assembled into intermediate filaments (human, UniProt P08670 2-466). The data set can be described thus: transmission electron microscopy of filaments mixed with test protein.
Data set [3] addresses GFP:hnRNPA1 full length (residue 2-320) (human, UniProt P09651-2 2-320). The data set can be described thus: co-IP.
Data set [4] concerns the target GFP:hnRNPA1 ΔRRM (186-320), the C-terminal LC domain (human, UniProt P09651-2 186-320). The data set can be described thus: co-IP.
In data set [5] the target is T1, His-3xFlag tagged D290V hnRNPA2 LCS (181-341 aa) (human, UniProt P22626-2 181-341, D290V).
T1 sequence (looked up): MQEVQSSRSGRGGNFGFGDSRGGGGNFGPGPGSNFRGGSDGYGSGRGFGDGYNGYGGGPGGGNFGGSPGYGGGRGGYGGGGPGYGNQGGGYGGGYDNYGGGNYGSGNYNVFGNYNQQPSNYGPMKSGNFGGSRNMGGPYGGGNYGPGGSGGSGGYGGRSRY
The data set can be described thus: co-IP.

B1: mCherry:neurofilament heavy isoform head domain (3-100) (domain or fragment, human, UniProt P12036 3-100, looked up)
chain: SFGGADALLGAPFAPLHGGGSLHYALARKGGAGGTRSAAGSSSGFHSWTRTSVSSVSASPSRFRGAGAASSTDSLDTLSNGPEGCMVAVATSRSEKEQ
For the molecule B1, the binding result in data set [1] was “binds”.

B2: GFP:FUS LC domain (residue 2-214) (domain or fragment, UniProt P35637 2-214, looked up)
chain: ASNDYTQQATQSYGAYPTQPGQGYSQQSSQPYGQQSYSGYSQSTDTSGYGQSSYSSYGQSQNTGYGTQSTPQGYGSTGGYGSSQSSQSSYGQQSSYPGYGQQPAPSSTSGSYGSSSQSSSYGQPQSGSYSQQPSYGGQQQSYGQQQSYNPPQGYGQQNQYNSSSGGGGGGGGGGNYGQDQSSMSSGGGSGGGYGNQDQSGGGGSGGYGQQDRG
Consider B2, for which, in data set [2], the binding result is recorded as “binds”.

B3: mCherry:vimentin head domain (2-95) (domain or fragment, human, UniProt P08670 2-95, looked up)
chain: STRSVSSSSYRRMFGGPGTASRPSSSRSYVTTSTRTYSLGSALRPSTSRSLYASSPGGVYATRSSAVRLRSSVPGVRLLQDSVDFSLADAINTE
For the molecule B3, the binding result in data set [1] is recorded as “binds”.

B4: mCherry:neurofilament light isoform head domain (2-100) (domain or fragment, human, UniProt P07196 2-100, looked up)
chain: SSFSYEPYYSTSYKRRYVETPRVHISSVRSGYSTARSAYSSYSAPVSSSLSVRRSYSSSSGSLMPSLENLDLSQVAAISNDLKSIRTQEKAQLQDLNDR
Take B4: in data set [1], the binding result is “binds”.

B5: mCherry:peripherin head domain (2-99) (domain or fragment, human, UniProt P41219 2-99, looked up)
chain: SHHPSGLRAGFSSTSYRRTFGPPPSLSPGAFSYSSSSRFSSSRLLGSASPSSSVRLGSFRSPRAGAGALLRLPSERLDFSMAEALNQEFLATRSNEKQ
Regarding B5, the binding result in data set [1] was “binds”.

B6: mCherry:neurofilament medium isoform head domain (2-104) (domain or fragment, human, UniProt P07197 2-104, looked up)
chain: SYTLDSLGNPSAYRRVTETRSSFSRVSGSPSSGFRSQSWSRGSPSTVSSSYKRSMLAPRLAYSSAMLSSAESSLDFSQSSSLLNGGSGPGGDYKLSRSNEKEQ
As for B6, the binding result in data set [1] was “binds”. With PRPRPRPRPRPRPRPRPRPRPRPRPRPRPRPRPRPRPRPR [PR20HA peptide (20 repeats of PR with an HA epitope tag at the C-terminus)], the binding result in data set [3], in data set [4] and in data set [5] was “binds” in each case.
